Measured values reported in patent US20090263323A1.

Biological target: NADPH oxidase 3 (NOX3)
Test: cell-based or functional assay

Question: Which PMA-induced superoxide generation of NOX3 (co-transfected HEK293 cells) does the source give for p67^phox/NOXA2 here?
Answer: Its PMA-induced superoxide generation of NOX3 (co-transfected HEK293 cells) is 2 fold.
